This data set addresses T1, TbTRF Myb domain (Trypanosoma brucei, UniProt Q4VHG6 281-382).
T1 sequence: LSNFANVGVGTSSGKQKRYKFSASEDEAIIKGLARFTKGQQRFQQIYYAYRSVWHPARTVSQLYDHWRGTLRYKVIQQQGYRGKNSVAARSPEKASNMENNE
The data set is described as follows: ITC.

B1: regular 13-mer telomeric oligo (dsDNA)
DNA 1: GGTTAGGGTTAGG
DNA 2: CCTAACCCTAACC
For B1, the binding result is listed as “binds”.

The values above are taken from publication PMC4227783.
